# T1: BAFFR (human, UniProt Q96RJ3)
# T1 sequence (receptor, looked up): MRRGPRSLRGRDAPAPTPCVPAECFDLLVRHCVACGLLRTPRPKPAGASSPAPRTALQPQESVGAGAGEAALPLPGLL
# T2: CD27 (human, UniProt P26842)
# T2 sequence (receptor, looked up): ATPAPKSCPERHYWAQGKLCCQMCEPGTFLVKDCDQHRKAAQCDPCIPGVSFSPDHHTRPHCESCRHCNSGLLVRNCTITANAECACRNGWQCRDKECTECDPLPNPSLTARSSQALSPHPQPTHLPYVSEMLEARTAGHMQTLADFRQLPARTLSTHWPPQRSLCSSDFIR
# T3: TACI (human, UniProt O14836)
# T3 sequence (receptor, looked up): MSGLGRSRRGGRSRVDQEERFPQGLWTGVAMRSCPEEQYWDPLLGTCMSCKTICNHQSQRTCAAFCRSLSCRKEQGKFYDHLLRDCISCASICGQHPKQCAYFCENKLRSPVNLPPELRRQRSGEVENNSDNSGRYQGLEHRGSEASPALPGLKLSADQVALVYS
# Assays:
# Assay in all cases: specificity ELISA, bacterial lysate on HisGrab nickel plate
# [1] = molecular target: T1, BAFFR
# Protocol: (§1) For the specificity ELISA, a crude cell lysate was made from bacteria expressing members of the TNFRSF family. To prevent nonspecific binding to the plate 50 μL of 5% BSA was added per mL of bacterial lysate. […] The plate was then rinsed three times with PBST, then MAB was diluted to 0.5 μg/mL in 10% FBS in PBS and 100 μL was added to each well. The plate was incubated for 1 hour at room temperature and then rinsed three times with PBST. Anti-human kappa antibody (Sigma #A7164) conjugated to HRP was diluted 1:5000 in 1:1 PBST: 10% FBS in PBS and 100 μL added to each well. The plate was incubated for 1 hour at room temperature, and then washed three times with PBST. 100 μL of SureBlue TMB substrate was added to each well and the plate was incubated for about 10 min at room temperature before stopping the reaction with 100 μL /well of 2N H₂SO₄.
# [2] = molecular target: T2, CD27
# Protocol: as §1
# [3] = molecular target: T3, TACI
# Protocol: as §1
Binder,binding result [1],binding result [2],binding result [3]
"MAB4 (IgG1 kappa) (antibody, V domains shown) VH: EVQLVESGGGLVQSGGSLRLSCAASGFSLSSYGVDWVRQAPGKGLEWVGVIWGGGGTYYASSLMGRFTISRDNSKNTLYLQMNSLRAEDTAVYYCAKHAYGHDGGFAMDYWGQGTLVTVSS VL: EIVMTQSPATLSVSPGERATLSCRASESVSSNVAWYQQRPGQAPRLLIYGASNRATGIPARFSGSGSGTDFTLTISRLEPEDFAVYYCGQSYSYPFTFGQGTKLEIKR",no binding (tested: not on the sheet; paragraph 335: 0.5 µg/mL),no binding (tested: not on the sheet; paragraph 335: 0.5 µg/mL),no binding (tested: not on the sheet; paragraph 335: 0.5 µg/mL)
"MAB5 (IgG1 kappa) (antibody, V domains shown, also called MABS (misprint of MAB5)) VH: EVQLVESGGGLVQSGGSLRLSCAASGFSLSSYGVDWVRQAPGKGLEWLGVIWGGGGTYYTSSLMGRFTISRDNSKNTLYLQMNSLRAEDTAVYYCAKHAYGHDGGFAMDYWGQGTLVTVSS VL: EIVMTQSPATLSVSPGERATLSCRASESVSSNVAWYQQRPGQAPRLLIYGASNRATGIPARFSGSGSGTDFTLTISRLEPEDFAVYYCGQSYSYPFTFGQGTKLEIKR",no binding (tested: not on the sheet; paragraph 335: 0.5 µg/mL),no binding (tested: not on the sheet; paragraph 335: 0.5 µg/mL),no binding (tested: not on the sheet; paragraph 335: 0.5 µg/mL)
